Data published in publication PMC4344939.

Target: Recombinant human galectin-1 (human) (UniProt P09382)
Assay: SPR

UniProt P09382, sequence (P09382 whole entry): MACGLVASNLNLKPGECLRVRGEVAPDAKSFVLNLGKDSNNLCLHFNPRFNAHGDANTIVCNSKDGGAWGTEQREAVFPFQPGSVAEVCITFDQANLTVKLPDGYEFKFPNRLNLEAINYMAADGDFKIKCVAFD

“Recombinant hemagglutinin (HA) from influenza A H1N1 (A/Puerto Rico/8/1934) (from UniProt P03452) (natural protein)” gave a Kd of 425 nM.
